Test [1] has as its target T1, recombinant CHO TEM-1 Fc fusion protein (UniProt Q9HCU0).
T1 sequence (looked up): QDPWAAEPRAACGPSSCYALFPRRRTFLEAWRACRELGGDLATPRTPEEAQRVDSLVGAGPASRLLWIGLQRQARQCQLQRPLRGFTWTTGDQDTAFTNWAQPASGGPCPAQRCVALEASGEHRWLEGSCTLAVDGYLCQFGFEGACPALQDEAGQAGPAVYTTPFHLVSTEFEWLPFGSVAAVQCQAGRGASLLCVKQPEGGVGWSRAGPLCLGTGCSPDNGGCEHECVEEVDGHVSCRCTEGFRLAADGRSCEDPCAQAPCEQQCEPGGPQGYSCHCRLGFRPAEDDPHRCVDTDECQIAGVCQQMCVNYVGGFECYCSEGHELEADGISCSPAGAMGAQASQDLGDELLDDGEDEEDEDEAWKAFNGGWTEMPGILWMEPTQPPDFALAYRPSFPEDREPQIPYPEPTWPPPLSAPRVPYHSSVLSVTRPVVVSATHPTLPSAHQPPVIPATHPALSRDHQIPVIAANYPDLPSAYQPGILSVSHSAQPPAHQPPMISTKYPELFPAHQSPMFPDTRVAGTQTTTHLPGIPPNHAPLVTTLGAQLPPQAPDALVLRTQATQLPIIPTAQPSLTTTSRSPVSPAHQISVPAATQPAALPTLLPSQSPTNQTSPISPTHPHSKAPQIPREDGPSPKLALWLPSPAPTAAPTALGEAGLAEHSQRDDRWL
In words: ECL sandwich, competition: biotin-9G5 capture, sulfo-TAG-15F8 detection; MORAb-004 spike 25 µg/mL, TEM-1-Fc QC 2 ng/mL; recovery at 0 µg/mL MORAb-004: 106.

In test [2] the target is T1, recombinant CHO TEM-1 Fc fusion protein. Put plainly: ECL sandwich, competition: biotin-9G5 capture, sulfo-TAG-15F8 detection; MORAb-004 spike 25 µg/mL, TEM-1-Fc QC 10 ng/mL; recovery at 0 µg/mL MORAb-004: 105.
Test [3] shares this target. In words: ECL sandwich, competition: biotin-9G5 capture, sulfo-TAG-15F8 detection; MORAb-004 spike 25 µg/mL, TEM-1-Fc QC 50 ng/mL; recovery at 0 µg/mL MORAb-004: 104.
The target is the same in test [4]. In words: ECL sandwich, competition: biotin-9G5 capture, sulfo-TAG-15F8 detection; MORAb-004 spike 50 µg/mL, TEM-1-Fc QC 50 ng/mL; recovery at 0 µg/mL MORAb-004: 104.
Test [5] has the same target. In words: ECL sandwich, competition: biotin-9G5 capture, sulfo-TAG-15F8 detection; MORAb-004 spike 50 µg/mL, TEM-1-Fc QC 0.4 ng/mL; recovery at 0 µg/mL MORAb-004: 109.
For test [6] the target is unchanged. In words: ECL sandwich, competition: biotin-9G5 capture, sulfo-TAG-15F8 detection; MORAb-004 spike 12.5 µg/mL, TEM-1-Fc QC 50 ng/mL; recovery at 0 µg/mL MORAb-004: 104.
For test [7] the target is unchanged. In words: ECL sandwich, competition: biotin-9G5 capture, sulfo-TAG-15F8 detection; MORAb-004 spike 3.125 µg/mL, TEM-1-Fc QC 2 ng/mL; recovery at 0 µg/mL MORAb-004: 106.
The target is the same in test [8]. Put plainly: ECL sandwich, competition: biotin-9G5 capture, sulfo-TAG-15F8 detection; MORAb-004 spike 50 µg/mL, TEM-1-Fc QC 0.08 ng/mL; recovery at 0 µg/mL MORAb-004: 114.
Test [9] shares this target. In words: ECL sandwich, competition: biotin-9G5 capture, sulfo-TAG-15F8 detection; MORAb-004 spike 6.25 µg/mL, TEM-1-Fc QC 50 ng/mL; recovery at 0 µg/mL MORAb-004: 104.
Test [10] has the same target. Put plainly: ECL sandwich, competition: biotin-9G5 capture, sulfo-TAG-15F8 detection; MORAb-004 spike 1.5625 µg/mL, TEM-1-Fc QC 2 ng/mL; recovery at 0 µg/mL MORAb-004: 106.
For test [11] the target is unchanged. Put plainly: ECL sandwich, competition: biotin-9G5 capture, sulfo-TAG-15F8 detection; MORAb-004 spike 6.25 µg/mL, TEM-1-Fc QC 0.4 ng/mL; recovery at 0 µg/mL MORAb-004: 109.
For test [12] the target is unchanged. In words: ECL sandwich, competition: biotin-9G5 capture, sulfo-TAG-15F8 detection; MORAb-004 spike 0.78125 µg/mL, TEM-1-Fc QC 2 ng/mL; recovery at 0 µg/mL MORAb-004: 106.
For test [13] the target is unchanged. Put plainly: ECL sandwich, competition: biotin-9G5 capture, sulfo-TAG-15F8 detection; MORAb-004 spike 12.5 µg/mL, TEM-1-Fc QC 0.08 ng/mL; recovery at 0 µg/mL MORAb-004: 114.
For test [14] the target is unchanged. In words: ECL sandwich, competition: biotin-9G5 capture, sulfo-TAG-15F8 detection; MORAb-004 spike 6.25 µg/mL, TEM-1-Fc QC 0.08 ng/mL; recovery at 0 µg/mL MORAb-004: 114.
For test [15] the target is unchanged. Put plainly: ECL sandwich, competition: biotin-9G5 capture, sulfo-TAG-15F8 detection; MORAb-004 spike 0.78125 µg/mL, TEM-1-Fc QC 50 ng/mL; recovery at 0 µg/mL MORAb-004: 104.
Test [16] has the same target. In words: ECL sandwich, competition: biotin-9G5 capture, sulfo-TAG-15F8 detection; MORAb-004 spike 1.5625 µg/mL, TEM-1-Fc QC 0.4 ng/mL; recovery at 0 µg/mL MORAb-004: 109.

B1: MORAb-004 (antibody, INN chains, looked up, V domains shown)
VH: QVQLQESGPGLVRPSQTLSLTCTASGYTFTDYVIHWVKQPPGRGLEWIGYINPYDDDTTYNQKFKGRVTMLVDTSSNTAYLRLSSVTAEDTAVYYCARRGNSYDGYFDYSMDYWGSGTPVTVSS
VL: DIQMTQSPSSLSASVGDRVTITCRASQNVGTAVAWLQQTPGKAPKLLIYSASNRYTGVPSRFSGSGSGTDYTFTISSLQPEDIATYYCQQYTNYPMYTFGQGTKVQIK
Turning to B1, the % Recovery of TEM-1 QCs spiked with MORAb-004 was found to be 89.1% in [1]; 91.3% in test [2]; 92.8% in test [3]; 93.1% in test [4]; 91.9% in test [5]; 92.1% in test [6]. The % Recovery of TEM-1 QCs spiked with MORAb-004 in test [7] amounted to 96%; in [8] it was 94.1%; in test [9], 95.7%; in test [10] it was 98.9%; in [11], 98%; in test [12], 99.9%. Further, the % Recovery of TEM-1 QCs spiked with MORAb-004 was determined as 99.4% in test [13], 101% in test [14], 99.3% in test [15] and 102% in test [16].

The values are drawn from patent US20150337051A1 (MORPHOTEK, published 2015).
